# Test results: patent US20140227225, “HCV Helicase Inhibitors and Methods of Use Thereof” (UWM RESEARCH FOUNDATION, INC., published 2014)
# Biological target: SSB single-stranded DNA-binding protein (Escherichia coli, UniProt P0AGE0 P0AGE0:2-178)
# Experiment: FP; complex of 5 nM Cy5-dT15 with 20 nM SSB, disrupted by compounds; 25 mM MOPS pH 7.5, 1.25 mM MgCl2
# Details: tags: Promega; chain copies: 4; label: 5'-Cy5
# Protocol: The Escherichia coli SSB assay was performed in a total volume of 20.2 μl in 384-well, flat-bottom, low volume, black microplates (Greiner Bio-One).
# For IC₅₀ determination, assays were performed with 60 μl total volume in black flat bottomed 384-well microplates (Corning). First, 3.0 μl of DMSO or compound dissolved in DMSO was added, such that the final concentration of DMSO was 5% (v/v) in each assay.
# Chain of SSB single-stranded DNA-binding protein (P0AGE0 2-178, one chain of several): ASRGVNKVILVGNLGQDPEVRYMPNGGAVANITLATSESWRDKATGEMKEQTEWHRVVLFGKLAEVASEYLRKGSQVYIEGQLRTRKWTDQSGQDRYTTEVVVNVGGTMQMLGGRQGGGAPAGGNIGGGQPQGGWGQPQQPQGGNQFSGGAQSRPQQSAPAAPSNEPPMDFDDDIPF
binder,measurement,value
TTTTTTTTTTTTTTT (ssDNA) [Cy5-dT15],binding result,binds
